Data set [1] deals with T1, Taq58 (TaqLF P685S Y686R E687K) (Thermus aquaticus, UniProt P19821 SEQ:1-544).
T1 chain: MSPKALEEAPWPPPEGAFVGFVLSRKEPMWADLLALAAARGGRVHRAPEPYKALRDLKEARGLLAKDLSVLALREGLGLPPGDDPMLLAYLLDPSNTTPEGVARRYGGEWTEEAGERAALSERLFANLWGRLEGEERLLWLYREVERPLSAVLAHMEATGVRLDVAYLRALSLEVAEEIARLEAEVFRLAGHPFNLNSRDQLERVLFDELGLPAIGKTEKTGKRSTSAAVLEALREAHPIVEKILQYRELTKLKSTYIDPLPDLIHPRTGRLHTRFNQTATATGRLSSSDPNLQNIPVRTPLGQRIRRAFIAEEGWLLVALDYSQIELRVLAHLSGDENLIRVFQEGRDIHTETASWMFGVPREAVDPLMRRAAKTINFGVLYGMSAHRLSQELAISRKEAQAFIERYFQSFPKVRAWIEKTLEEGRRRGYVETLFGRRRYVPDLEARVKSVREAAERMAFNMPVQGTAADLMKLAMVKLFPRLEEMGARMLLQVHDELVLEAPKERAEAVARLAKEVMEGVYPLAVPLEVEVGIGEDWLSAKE
Nature of the data set: EMSA; apparent; shifted band from 25 nM; 20 mM Tris-HCl pH 8.8, 10 mM NaCl, 5 mM MgCl2, 40 C. As to conditions: label: 5'-32P on d27; primer-template, 27 bp duplex with 22 nt 5' overhang on 49N. On the procedure:
(§1) The affinity of variant Taq polymerases and primed DNAs was examined using a gel shift assay. The measurement was carried out in the following manner.
(§2) First, DNA in which a 27 nt of a single-stranded DNA (d27, SEQ ID NO: 50) radioactive-labeled with ³²P at 5′-terminal was annealed to a non-labeled 49 nt of a single-stranded DNA (49N, SEQ ID NO: 51) was used as a substrate DNA for the measurement of DNA binding ability. DNA polymerase proteins were added to 10 μl of Solution E [20 mM Tris-HCl, pH 8.8, 10 mM NaCl, 5 mM MgCl₂, 14 mM 2-mercaptoethanol, 0.1 mg/ml BSA and 5% (v/v) glycerol] containing 2 nM substrate DNA so as to have concentration of from 0.6 to 400 nM, and the mixture was held at 40° C. for 5 minutes. A liquid DNA-enzyme mixture was subjected to 1% agarose gel and electrophoresed in a 0.1×TAE solution [4 mM Tris base, 2 mM acetic acid and 0.1 mM EDTA]. After the termination of electrophoresis, the gel was dried, and the dried gel was exposed to an imaging plate. Typhoon TRIO+ was used to detect a labeled DNA.

Data set [2] has as its target T2, Taq59 (TaqLF P685R Y686R E687R) (Thermus aquaticus, UniProt P19821 SEQ:1-544).
T2 chain: T1 chain with S397R, K399R
Nature of the data set: EMSA; apparent; clear shift at 25 nM, two-step shift at 400 nM; 20 mM Tris-HCl pH 8.8, 10 mM NaCl, 5 mM MgCl2, 40 C. As to conditions: label: 5'-32P on d27; primer-template, 27 bp duplex with 22 nt 5' overhang on 49N. On the procedure:
as §1, §2

The text below walks through data of patent US20180346889, “DNA POLYMERASE VARIANT” (KYUSHU UNIVERSITY, NATIONAL UNIVERSITY CORPORATION, published 2018).

Residue numbers refer to the chain shown, from its start.

B1: primed DNA d27/49N (dsDNA)
DNA 1: AGCTATGACCATGATTACGAATTGCTT
DNA 2: AGCTACCATGCCTGCACGAATTAAGCAATTCGTAATCATGGTCATAGCT
For the molecule B1, the Kd in data set [1] was 100 nM; in data set [2], 40 nM.
